Measurements: patent US11180762B2, “Methods and compositions for the treatment of cancer” (CHILDREN'S MEDICAL CENTER CORPORATION, priority 2014, dated 2021)
Entries after “also recorded” stand apart in the source; their conditions may differ.

Legend:
AKT1 = AKT1 mRNA and protein knockdown in breast cancer cell lines; type: cell-based, human; conditions: basal-A, luminal, basal-B lines, fibroblasts
Description: For uptake and silencing treatment, cells were plated at low density (10,000 cells/well in 96-well plates) and treated immediately. All AsiC and siRNA treatments were performed in either OptiMEM or WIT medium. Cell viability was assessed by CellTiter-Glo (Promega) or by Trypan-Blue staining in 96-well plates.
For flow cytometry, cells were stained as previously described (Yu, F. et al (2007). let-7 Regulates Self Renewal and Tumorigenicity of Breast Cancer Cells. Cell 131, 1109-1123. ), briefly, direct immunostaining of EpCAM and AKT1 was performed using 1:50 dilutions of hAb for 30-60 minutes at 4° C. (BioLegend/BD). Cells were stained in PBS containing 0.5% FCS, 1 mM EDTA, and 25 mM HEPES. Samples were washed twice in the same buffer. Data was acquired using FACS-Canto II (BD Biosciences). Analyses were performed in triplicate and 10,000 gated events/sample were counted. All data analysis was performed using FlowJo (Treestar Inc.).
qRT-PCR analysis was performed as described (Petrocca, F., et al. (2008). E2F1-regulated microRNAs impair TGFbeta-dependent cell-cycle arrest and apoptosis in gastric cancer. Cancer Cell 13, 272-286). Briefly, total RNA was extracted with Trizol (Invitrogen) and cDNA prepared from 1000 ng total RNA using Thermoscript RT kit (Invitrogen) as per the […] (Applied Biosystems) and a BioRad C1000 Thermal Cycler (Biorad). Relative CT values were normalized to GAPDH and converted to a linear scale.

subcutaneous tumors = assay: Tumor accumulation after intravenous injection of fluorescent EpCAM-AsiCs; type: in vivo, nude mice; conditions: tail vein
Excerpt: To be clinically useful, EpCAM-AsiCs need to be taken up by disseminated tumor cells. […] The EpCAM-AsiCs were detected around the injection site on day 2, but were only found within the EpCAM+ tumor on day 4.

[1] = test system: IFNβ, IL-6, IP-10 and IFN-induced genes; assay: Innate immune stimulation in mice; type: in vivo; conditions: 5 mg/kg sc
Description: Mice were injected sc with eGFP EpCAM-AsiCs (5 mg/kg, n=3) or ip with Poly(I:C) (5 or 50 mg/kg (n=2/dose). FIG. 8A: Serum samples, collected at baseline and 6 and 16 hr after treatment were assessed for IFNβ, IL-6 and IP-10 by multiplex immunoassay. * p<0.05. ** p<0.01, *** p<0.001, compared to baseline. FIG. 8B: mRNA expression of cytokine and IFN-induced genes, relative to gapdh was assayed by qRT-PCR in total splenocytes harvested 16 hr post treatment. ** p<0.01, compared to untreated (NT, n=3).
Mice were injected sc with eGFP EpCAM-AsiCs (5 mg/kg) or ip with Poly(I:C) (5 or 50 mg/kg). Serum samples, collected at baseline and 6 and 16 hr after treatment were stored at −80° C. before measuring IFNβ, IL-6 and IP-10 using the ProcartaPlex Multiplex Immunoassay (Affymetrix/eBioscience, San Diego, Calif.). Spleens, harvested at sacrifice 16 hr post treatment, were stored in RNAlater (Qiagen) before extracting RNA using TRIZOL (Invitrogen) with the gentleMACS Dissociator (MACS Miltenyi Biotec, San Diego, Calif.). cDNA was synthesized using Superscript III and random hexamers (Invitrogen) and PCR was performed using SsoFast EvaGreen Supermix and a Bio-Rad CFX96 Real-Time PCR System (Bio-Rad Laboratories, Hercules, Calif.) using the following primers: […]

EpCAM+ cell lines = assay: In vitro gene knockdown by AsiC designs; type: cell-based, human
[2] = test system: CD44+CD24low/− and ALDH+ cells; assay: Proportion of cells with T-IC phenotype; type: cell-based, human; conditions: basal-A and luminal lines; listed as PLK1 EpCAM-AsiCs
MB468-luc cells = assay: Tumor initiation by ex vivo treated EpCAM+ cells in nude mice; conditions: cells treated ex vivo 24 h/overnight, then implanted, imaged 20 days
Description: For tumor initiation studies 8-week old female Nu/J mice (Stock #002019, Jackson Laboratories) were injected subcutaneously with MB468-luc (5×10^6) cells pretreated for 24 h with EpCAM-AsiC-GFP, EpCAM-AsiC-PLK1 or untreated. Cells were trypsinized with Tryple Express (Invitrogen), resuspended in WIT media and injected subcutaneously in the flank. Following intraperitoneal injection of 150 mg/kg D-luciferin (Caliper Life Sciences) luminescent images of the whole body were taken every 5 days for a total of 20 days using the IVIS Spectra system (Caliper Life Sciences).

MB231-luc-mCherry tumors = assay: Tumor inhibition, EpCAM− MB231-luc-mCherry xenograft; type: in vivo, nude mice; conditions: 5 mg/kg sc every 3 d (72 h) for 2 wks
Description: For tumor inhibition studies, MB468-luc (5×10^6) and MB231-luc-mCherry (5×10^5) cells trypsinized with Tryple Express (Invitrogen), resuspended in a 1:1 WIT-Matrigel solution and injected subcutaneously in the flank of 8-week old female Nu/J mice (Stock #002019, Jackson Laboratories). Tumors size was analyzed daily using the IVIS Spectra, after 5 days tumors were clearly visible. […] Mice were treated every 72 h for 14 days.

Argonaute (AGO) = assay: PLK1 siRNA association with Argonaute (pan-AGO immunoprecipitation, qRT-PCR); type: cell-based, human; conditions: MDA-MB-468 cells treated 2 days; listed as PLK1 EpCAM-AsiCs
Excerpt: MB-468 cells, treated with PLK1 EPCAM-AsiC or siRNA for 2 days, were lysed, and cell lysates were immunoprecipitated with pan-AGO antibody or IgG isotype control. The amount of PLK1 siRNA in the immunoprecipitates was quantified by Taqman qRT-PCR, presented as log2 mean with SEM, relative to miR-16. **, P<0.01 by Student's t-test relative to siRNA-treated cells. ND, not detectable. […] This is likely because most RNAs that are taken up by cells are not released from endosomes to the cytosol (A. Wittrup et al., Visualizing lipid-formulated siRNA release from endosomes and target gene knockdown. Nature Biotechnology 2015, in press).
Uptake was clearly detected at 22 hr, but increased greatly after 43 hr. To test whether EpCAM-AsiCs are specifically taken up by EpCAM bright cell lines, the 3′ end of the antisense strand of the AsiC was fluorescently labeled. […] Previous studies have shown that AsiCs are processed within cells by Dicer to release the siRNA from the aptamer (10, 12, 15).

[3] = listed as EpCAM-AsiC targeting PLK1

Molecule | AKT1 mRNA and protein knockdown across cell lines (AKT1) | tumor accumulation after intravenous injection (subcutaneous tumors) | innate immune stimulation [1] | innate immune stimulation ([1]; listed as EpCAM AsiCs) | gene knockdown, EpCAM+ vs EpCAM− cells (EpCAM+ cell lines) | proportion of cells with T-IC phenotype [2] | tumor initiation, EpCAM+ cells (MB468-luc cells; [3]) | tumor initiation, EpCAM+ cells (MB468-luc cells; listed as PLK1 EpCAM-AsiCs) | growth of EpCAM− MB231 tumors (MB231-luc-mCherry tumors; [3]) | growth of EpCAM− MB231 tumors (MB231-luc-mCherry tumors; listed as PLK1-targeting AsiCs) | growth of EpCAM− MB231 tumors (MB231-luc-mCherry tumors; listed as PLK1 EpCAM-AsiCs) | PLK1 siRNA bound to Ago / in the RISC (Argonaute (AGO))
EpCAM-AsiC: EpCAM aptamer-siRNA chimera, siRNA cargo not specified at the place; 2'-fluoropyrimidines, 3'-dTdT (nucleic acid, DNA at T, 2'-fluoro at CU, RNA at AG, backbone not given here; further chemistry not fully specified, EpCAM aptamer-siRNA chimera, siRNA cargo not specified at the place; 2'-fluoropyrimidines, 3'-dTdT) sense: GCGACUGGUUACCCGGUCGUUUUGAAGAAGAUCACCCUCCUUATT antisense: UAAGGAGGGUGAUCUUCUUCATT | uniform and selective for EpCAM+ cells | did not lead to significant AsiC accumulation within subcutaneous tumors | do not trigger innate immunity | does not stimulate innate immunity in mice | selectively knocked down expression in EpCAM+ breast and colon cancer cell lines but not in normal epithelial cells or mesenchymal tumor cells |  |  |  |  |  |  | 
PLK1 EpCAM-AsiC: EpCAM aptamer linked by U-U-U to PLK1 siRNA sense strand (SEQ ID NO: 1), annealed to antisense strand (SEQ ID NO: 2) (nucleic acid, DNA at T, 2'-fluoro at CU, RNA at AG, backbone not given here; EpCAM aptamer fused to sense strand) sense: GCGACUGGUUACCCGGUCGUUUUGAAGAAGAUCACCCUCCUUATT antisense: UAAGGAGGGUGAUCUUCUUCATT |  |  |  |  |  | reduced the proportion of cells with the phenotype of T-ICs; also recorded: reduced CD44+CD24low and Aldefluor+ cells | did not show any sign of a tumor after 20 days; also recorded: no tumor initiation | completely blocked tumor formation; also recorded: eliminated tumor initiation by basal-like TNBCs; also recorded: eliminated their ability to form tumors in nude mice | remained unchanged | continued to grow | had no effect on EpCAM− mesenchymal TNBCs; also recorded: had no effect on EpCAM− basal-B xenografts | PLK1 siRNA immunoprecipitated with Ago; also recorded: PLK1 siRNA was found in the RISC
